The values below come from the NTF2 design screens of Basanta et al. (2020).

A short description of the data set: protease stability score; higher = more stable; yeast display proteolysis, trypsin and chymotrypsin.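 Also: log10 excess protease needed over predicted unfolded state with 0 meaning unfolded.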
On to “DQQHTASKVLSDMVKAIQDGDEDHISEQADENVKIRIGDKEYHGKENARRMLKEIQHQVDHISVEVKSVSSHNGRVNVRAEVQMRFNGRSTSYDVTAIFRYNNGQLRLYSVSAR”, for which the protease stability score came out at 0.242. Under “DQQKEAEKFARDMRRALDTGDERDVANLFPPDAKLRYGDKSFHGMDDIFKWVVTVLRQADHIHFQVRSVRDQGDKADIEFELRYDVNGQDRSRIFHAEVRHNGDNVQVEMNVEK” stands 0.326; under “DQQTDAKEHAETVNKVLTHNDPNKLRELFDEDARMRVGDKEYRGQEQVDHVLKEIADRVDHVDVKLESVSLENGSVKVVIRAVFDDNGRKNDVHIDLVAVIDNGDLYIKEIRFE”, 0.301. Under “DQRDLEHVNHVLQTGDPDQFRDLVDPNARIRVGDKTIHGRENVLTKYRRLMEQADHLQIDSIRNHGEFVVFDFRMTVNGRQVDAEVNIHVKDGQIKEIEIRFRSEEQEDRWRKQAD” stands 1.42; under “DQRDQRKANEIIKTNDESKLAKQADKDARLVVGNKEYHGKEQVQHFADQLEKMFDHLEITHYDSHGENFNVVAVMDVNGQRVQYYWRFRVHNGQFKYIEFRARDEETQKTIHRLLG”, 0.606; under “DQRDVEKIATKLSEVVRTGDPHEFAKMADPNAKVEVGDKSWRGHEEIRDWLKQITDEADSIHVDSVTAQGDKIDMTITVDFNGKRVQFDIKIQMENGRIKKMKLDPDQQRKLER”, 1.04. Under “DQRDVKKAEHLLRILETGNESELKKMMDPNARARVGDTTYHGMDDFVRKLTHMRDRAKFEIKEYSATDHNGHIRVHVRREVNFNGRPDRVSFIVRFDIENGKVRSVIFNLPRELLEREKK” stands 0.429. “DQREIVTKILRDFVKAFKTGDQDKYEKLVDKDVEYNIGDKTYHGREEAKKLFRELVKQVDHYSVHYKSISVRNGRAKVEAIQYYKHDGRTYHNKVSYTFRIQGDKIRMQDATFS” came in with a protease stability score of 0.602. Under “DQRERQEHAEHFNRVLQTNDPDRIKKLFDPNAKLQIGDSTFTGREDIDDAAKELKEQADHITVDRVHVHGNKVTLRFVMNVDGKSADATVTMIVKNGRAKEVHFDPRLEEQIKK” stands -0.407. The same measure for “DQRERVKKLFDRFQHNIKHGDKSKATNQFPPDVTMSIGDEDLHGRDAAKRYADNVANNADRFHHEIQDYKQKGNNANLRVKIVLNHNGTNHSHEADWVAVVHNGQARLKEVKFD”: -0.078; for “DQRLWERFVKDLEENDEKSWQDLVDKDAKVEVGDTSYQGREHALTAIQKWVHQVDHVEIKSYRIHGDNVQIRMEVVINGRKMQVTVQAHLHNGKMKNIHMEATDRHVVEKLRELIS”: 0.039; for “DQRTREKVAEDIDNNDPQKLQDQADENVRVEYGNKVVHGREQMQEWARSLKDDVDSLEVDHVELDGDKIDARVNFNVNGRRVVFTIEADAHNGTIQRLRMTVTSEEQDTHMKQAAN”: -0.209. Under “DQSELRDFVEEFLEIFRHGNEDDARRLVDKDATAKVGDKTYNGEEQVLDFLKQLRNRADHVQIDTFRVEGDKMEAHMRLNVNGKTVQVVIQAEVRNGRIKHFRMDPNDLRKLEK” stands 0.657.

As to “DQTALKVFKEYLEVVLNGDEHEAVELVDKDVRMNVGDKRWHGQEHIEREIRNQTRHSRLDYDHVRFEDDGDKAVFKRTVRFTHNGKPDSSRNVMHATADNGRIKSMKVEDDR”, the protease stability score was -0.334. Under “DQTDEAEKWMEHITRVLHHNDTDQMLELADENVKIDIGDKTYHGREQFSQLLRDIAERVDHFSQRIDSIRVNGDKVRIDFKNVLDHNGRKHSQQVVVEINRTNGQWRLKSLHKK” stands 0.151. The same measure for “DRDDFRRVIHEVQKALKHGDREQLRRLLDENAKVKVGDKEYQGDERAVKVMTTIANKADRMEYKDIHLHGDSVYINVVLNHNGKKDTVVWVIAVNNGKVQFFAQETR”: 1.01; for “DRDEVHHLHELYKAIEDGDDKKAQDLMDENAKARIGDKHFRGMQHFVETLKKEKDHMRVKIDNMRFTERPNRVVVNIEVKRSNNGEPESEVYRAFADAHNGKFVNLVIEHNQ”: -0.056. The same measure for “DRDKERKVIEKLMNALQNNDENQIRKLIDPNARLVYGDKELHGREEVVKFLVTLLNQVDRIEYKSYDFHNGHANIDFTLRFNGQNATFTMEIRVKNGRVDHITLDPQQINRMNS”: 0.885.
